B1: CPE-LC-E049K (antibody, V domains shown)
VH: QVQLVQSGAEVKKPGASVKVSCKASGYIFTSYWIHWIRQPPGKGLEWIGRIYPGTGNTYYNEKFKGRVTISADKSISTAYLQWSSLKASDTAMYYCARSYDSSCAYWGQGTLVTVSS
VL: AIQLTQSPSSLSASVGDRVTITCSASSSVSYMHWYLQKPGQSPQLLIYKTSKLASGVPSRFSGSGSGTDFTFTISSLEAEDAATYYCQQWSSNPYITFGQGTKVEIKR
notes: One of the mutant antibodies of the CPE library made from hum10 (CDR positions substituted); built here as hum10 with E49K in the light chain, read from its name
B2: CPS-04 (antibody, V domains shown)
VH: QVQLVQSGAEVKKPGASVKVSCKASGYIFRSYWIHWIRQPPGKGLEWIGRIYPGTGNTYYNRKFKGRVTISADKSISTAYLQWSSLKASDTAMYYCARSYDSSVAYWGQGTLVTVSS
VL: AIQLTQSPSSLSASVGDRVTITCSASSSVSYMHWYLQKPGQSPQLLIYKTSKLLSGVPSRFSGSGSGTDFTFTISSLEAEDAATYYCQQWSSNPYITFGQGTKVEIKR
notes: Mutant of humanized hum10, whole antibody expressed in CHO cells; also called LC-07 / HC-09
B3: CPS-14 (antibody, V domains shown)
VH: QVQLVQSGAEVKKPGASVKVSCKASGYIFTSYWIHWIRQPPGKGLEWIGRIYPGTGRTYYNRKFKGRVTISADKSISTAYLQWSSLKASDTAMYYCARSYDYSVAYWGQGTLVTVSS
VL: AIQLTQSPSSLSASVGDRVTITCSASSSVSYMHWYLQKPGQSPQLLIYETRKLASGVPSRFSGSGSGTDFTFTISSLEAEDAATYYCQQWSSNPYITFGQGTKVEIKR
notes: Mutant of humanized hum10, whole antibody expressed in CHO cells; also called LC-04 / HC-31
B4: CPS-17 (antibody, V domains shown)
VH: QVQLVQSGAEVKKPGASVKVSCKASGYIFRSYWIHWIRQPPGKGLEWIGRIYPGTGNTYYNRKFKGRVTISADKSISTAYLQWSSLKASDTAMYYCARSYMYSVAYWGQGTLVTVSS
VL: AIQLTQSPSSLSASVGDRVTITCSASSSVSYMHWYLQKPGQSPQLLIYETRKLASGVPSRFSGSGSGTDFTFTISSLEAEDAATYYCQQWSSNPYITFGQGTKVEIKR
notes: Mutant of humanized hum10, whole antibody expressed in CHO cells; also called LC-04 / HC-49

What was measured:
mouse IL-22 = target: T1, mouse IL-22 (mouse, UniProt Q9JJY9 34-179); test: SPR (SierraSensors SPR-2), mIL-22 immobilized on chip, antibody injected, heterogeneous ligand model
T1 construct: also called mIL-22; mIL22
T1 sequence (looked up): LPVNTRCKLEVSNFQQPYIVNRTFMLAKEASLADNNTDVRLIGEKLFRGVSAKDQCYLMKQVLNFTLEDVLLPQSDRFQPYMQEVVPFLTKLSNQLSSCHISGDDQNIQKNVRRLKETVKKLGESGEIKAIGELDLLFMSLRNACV
Description: (§1) The affinity of the 10 antibodies of Table 1 was measured by Surface Plasma Resonance (SPR) using a capture assay on a SPR-2 instrument (SierraSensiors, Hamburg, Germany). The antigens hIL-22 and mIL-22 were immobilized on chips. The running buffer for the assay contained 10 mM HEPES with a pH of 7.4, 500 mM NaCl, and 0.05% TWEEN® 20. […] The off-rate was measured for 6 minutes. Binding constants were calculated using the curve fitting software Analyzer2 (Sierra Sensors). Sensorgrams were analyzed with the instrument specific software and with BIAevaluation 4.1 software. The binding data were analyzed using the Langmuir 1:1 model (human IL-22) or a model for a heterogeneous ligand (mouse IL-220).

human IL20 = target: T2, human IL20 (human, UniProt Q9NYY1 25-176); test: ELISA on coated antigen (1 ug/ml), anti-hIgG-HRP, OD450;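 note: specificity check of antibodies applied at 100 ng/ml to wells bearing human or mouse IL-22, related cytokines or an unrelated control antigen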
T2 sequence (looked up): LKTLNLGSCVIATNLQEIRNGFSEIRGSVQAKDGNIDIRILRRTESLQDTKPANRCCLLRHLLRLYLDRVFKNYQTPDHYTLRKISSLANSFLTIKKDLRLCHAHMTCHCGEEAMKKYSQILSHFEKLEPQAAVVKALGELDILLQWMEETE
Description: (§2) Plates were coated with 100 μl antigens at a concentration of 1 μg/ml. The plates were exposed to the antibodies at a concentration of 100 ng/ml. The bound antibodies were detected with anti-hIgG-HRP by the ELISA assay.

human IL24 = target: T3, human IL24 (human, UniProt Q13007 52-206, limits assumed); test: as above
T3 sequence (looked up): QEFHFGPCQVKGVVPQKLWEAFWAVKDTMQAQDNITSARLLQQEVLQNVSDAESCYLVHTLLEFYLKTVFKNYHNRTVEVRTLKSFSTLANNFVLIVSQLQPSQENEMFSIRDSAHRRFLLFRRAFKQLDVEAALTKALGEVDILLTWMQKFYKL
Description: as §2

INF-λ1 = INF-λ1 (Homo sapiens (Human), UniProt Q8IU54 20-200); test: as above
Sequence of INF-λ1 (Q8IU54 20-200 limits assumed): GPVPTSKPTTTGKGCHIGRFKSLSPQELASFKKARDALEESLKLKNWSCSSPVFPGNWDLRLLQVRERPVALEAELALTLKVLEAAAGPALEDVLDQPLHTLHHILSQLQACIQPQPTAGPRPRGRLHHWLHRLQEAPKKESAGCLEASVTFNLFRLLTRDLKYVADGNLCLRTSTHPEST
Description: as §2

INF-γ = target: T4, INF-γ (Homo sapiens (Human), UniProt P01579 24-161); test: as above
T4 sequence: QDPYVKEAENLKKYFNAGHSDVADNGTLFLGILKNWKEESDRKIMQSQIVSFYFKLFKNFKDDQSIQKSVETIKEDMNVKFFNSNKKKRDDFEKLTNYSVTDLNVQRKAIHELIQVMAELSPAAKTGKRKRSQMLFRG
Description: as §2

human IL26 = target: T5, human IL26 (human, UniProt Q9NPH9 22-171, limits assumed); test: as above
T5 sequence (looked up): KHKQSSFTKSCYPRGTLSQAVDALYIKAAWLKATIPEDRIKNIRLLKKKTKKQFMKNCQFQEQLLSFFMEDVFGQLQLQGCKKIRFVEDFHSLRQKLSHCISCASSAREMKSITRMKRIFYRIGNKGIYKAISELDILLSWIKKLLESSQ
Description: as §2

human IL19 = target: T6, human IL19 (human, UniProt Q9UHD0 25-177); test: as above
T6 sequence (looked up): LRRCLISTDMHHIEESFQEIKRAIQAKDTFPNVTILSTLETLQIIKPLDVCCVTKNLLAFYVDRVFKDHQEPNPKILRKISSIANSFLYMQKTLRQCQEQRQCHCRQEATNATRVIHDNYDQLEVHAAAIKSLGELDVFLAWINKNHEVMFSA
Description: as §2

human IL-22 = target: T7, human IL-22 (human, UniProt Q9GZX6 34-179); test: SPR (SierraSensors SPR-2), hIL-22 immobilized on chip, antibody injected, Langmuir 1:1 model
T7 construct: also called hIL-22; hIL22
T7 sequence (looked up): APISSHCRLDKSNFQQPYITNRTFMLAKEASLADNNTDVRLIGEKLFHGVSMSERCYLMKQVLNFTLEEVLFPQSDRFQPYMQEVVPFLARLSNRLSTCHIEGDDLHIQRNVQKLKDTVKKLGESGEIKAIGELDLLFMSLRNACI
Description: as §1

[1] = target: IL-22 (CXCL1 assay in HT29 cells); test: cell-based or functional assay

Binder | Kd (mouse IL-22) [nM] | koff (mouse IL-22) [s⁻¹] | binding result (human IL20) | binding result (human IL24) | binding result (INF-λ1) | binding result (INF-γ) | binding result (human IL26) | binding result (human IL19) | Kd (human IL-22) [nM] | koff (human IL-22) [s⁻¹] | IC50 (parameter C of the log-logit fit y=(A-D)/(1+(x/C)^B)+D) of inhibition of IL-22-induced CXCL1 production in HT29 cells [1] [ng/ml]
B1 | 40.2 | 0.00137 | no binding (tested: 100 ng/ml) | no binding (tested: 100 ng/ml) | no binding (tested: 100 ng/ml) | no binding (tested: 100 ng/ml) | no binding (tested: 100 ng/ml) | no binding (tested: 100 ng/ml) | 0.156 | 5.93e-05 | 124
B2 | 4.23 | 0.00118 | no binding (tested: 100 ng/ml) | no binding (tested: 100 ng/ml) | no binding (tested: 100 ng/ml) | no binding (tested: 100 ng/ml) | no binding (tested: 100 ng/ml) | no binding (tested: 100 ng/ml) | 0.0292 | 3.74e-05 | 51
B3 | 4.8 | 0.00123 | no binding (tested: 100 ng/ml) | no binding (tested: 100 ng/ml) | no binding (tested: 100 ng/ml) | no binding (tested: 100 ng/ml) | no binding (tested: 100 ng/ml) | no binding (tested: 100 ng/ml) | 0.0314 | 3.55e-05 | 44.2
B4 | 6.27 | 0.00158 | no binding (tested: 100 ng/ml) | no binding (tested: 100 ng/ml) | no binding (tested: 100 ng/ml) | no binding (tested: 100 ng/ml) | no binding (tested: 100 ng/ml) | no binding (tested: 100 ng/ml) | 0.0522 | 6.94e-05 | 155
